Measurements as given in PMC10415141 (Nucleic Acids Research, 2023).

Target: T1, human MCM8 (HsMCM8), wild type, N-terminal StrepII tag and TEV site (human, UniProt Q9UJA3 1-840)
T1 sequence (looked up): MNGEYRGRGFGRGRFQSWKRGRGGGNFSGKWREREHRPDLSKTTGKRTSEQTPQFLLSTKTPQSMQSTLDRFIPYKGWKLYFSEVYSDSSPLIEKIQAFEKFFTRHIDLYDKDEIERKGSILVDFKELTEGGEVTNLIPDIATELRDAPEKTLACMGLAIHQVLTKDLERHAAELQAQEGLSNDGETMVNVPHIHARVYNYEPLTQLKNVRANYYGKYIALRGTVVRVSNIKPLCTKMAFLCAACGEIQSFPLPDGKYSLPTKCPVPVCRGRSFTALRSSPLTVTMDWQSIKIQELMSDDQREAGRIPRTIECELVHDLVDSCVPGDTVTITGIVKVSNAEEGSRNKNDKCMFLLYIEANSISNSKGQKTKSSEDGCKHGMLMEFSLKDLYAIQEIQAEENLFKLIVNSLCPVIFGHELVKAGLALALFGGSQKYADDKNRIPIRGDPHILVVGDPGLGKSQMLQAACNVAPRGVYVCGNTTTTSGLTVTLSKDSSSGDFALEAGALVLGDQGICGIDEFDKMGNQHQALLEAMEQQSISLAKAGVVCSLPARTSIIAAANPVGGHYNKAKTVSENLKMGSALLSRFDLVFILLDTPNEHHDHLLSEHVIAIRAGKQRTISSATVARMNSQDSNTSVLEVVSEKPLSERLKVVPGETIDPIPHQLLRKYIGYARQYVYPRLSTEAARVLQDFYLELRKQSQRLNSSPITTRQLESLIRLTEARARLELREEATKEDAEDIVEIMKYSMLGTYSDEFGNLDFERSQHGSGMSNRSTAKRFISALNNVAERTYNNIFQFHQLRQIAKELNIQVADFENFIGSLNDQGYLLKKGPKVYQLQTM
Assay: SEC

stoichiometry N: 1
B1: human MCM9 truncated to the first 680 amino acids (MCM9^680), wild type, N-terminal 6xHis tag (domain or fragment)
chain: not shown
